# Reference: patent US20260193326A1
# Tests used:
# Experiment in all cases: SPR, AAV on CM5 chip
# [1] = molecular target: AAV9 (adeno-associated virus serotype 9)
# [2] = molecular target: AAV5 (adeno-associated virus serotype 5)
# [3] = molecular target: AAV8 (adeno-associated virus serotype 8)
Binder,Kd [1] [nM],koff [1] [s⁻¹],kon [1] [M⁻¹ s⁻¹],Kd [2] [nM],koff [2] [s⁻¹],kon [2] [M⁻¹ s⁻¹],Kd [3] [nM],koff [3] [s⁻¹],kon [3] [M⁻¹ s⁻¹]
A4-D9 (bispecific antibody) VQLQESGGGLVHSGGSLRLSCAASGSMFSLNTMGWYRQAPGKQRELVATITRGGGTSYADSVKGRFTISRDNAKNTVYLQMNSLRPEDTAVYYCHVDELRQSSWTTSNLWGQGTQVTVSSGGGGSGGGGSGGGGSVQLQESGGGLVQPGGSLRLSCAASGSRFSLNTMGWYRQAPGKQRELVATVTRGGSTNYADFVKGRFTISRDNAKNTVYLQMNSLRPEDTAVYYCHVDELRESGWTTSNLWGQGTQVTVSSGGGGSGGGGSGGGGSVQLQESGGGLVQPGGSLRLSCAASGSRFSLNTMGWYRQAPGKQRELVATVTRGGSTNYADFVKGRFTISRDNAKNTVYLQMNSLRPEDTAVYYCHVDELRESGWTTSNLWGQGTQVTVSSGGGGSGGGGSGGGGSVQLQESGGGLVQTGGSLRLSCAASGRAFSLNTMGWYRQAPGKWRELVATVTRGGSTNYAGSVKGRFTISRDNAKNTVYLQMNNLRPEDTAVYYCHVDEVRESSWTTSNLWGQGTQVTVSS,0.745,1.94e-05,26000,0.1,2.3e-06,22900,0.318,9.9e-06,31100
A4-D10 (protein) VQLQESGGGLAQAGGSLRLSCAASGRGFSINTMGWYRQAPGKQRELVAAVTRGGTTNYADSVKGRFTISRDNAKNTVYLQMNSLRPEDTAVYYCHVDEVRQSSWTTSNLWGQGTQVTVSSGGGGSGGGGSGGGGSVQLQESGGGLVQPGGSLRLSCAASGRAFSINTMGWYRQAPGKQRELVATVTRDGSTNYAGSVKGRFTISRDNAKNTVYLQMNSLRPEDTAVYYCHVDEVRQSSWTTSNLWGQGTQVTVSSGGGGSGGGGSGGGGSVQLQESGGGLVQPGGSLRLSCAASGSIFIINTMGWYRRAPGKQRELVAAVTRGGSTNYADSVKGRFTISRDNAKNTVYLQMNSLRPEDTAVYYCHVDEVRQSSWTTSNLWGQGTQVTVSSGGGGSGGGGSGGGGSVQLQESGGGLVQPGGSLRLSCAASGSIFSINTMGWYRQAPGKQRELVAAVTRGGSTNYADSVKGRFTISRDNAKNTVYLQMNSLRPEDTAVYYCHVDEVRQSSWTTSNLWGQGTQVTVSS,0.0611,1.9e-06,31100,0.481,8.3e-06,17300,0.542,1.66e-05,30700
A4-D11 (protein) VQLQESGGGLVQPGGSLRLSCAASGRGFSINTMGWYRQAPGKQRELVAAVTRGGTTNYADSVKGRFTISRDNAKNTVYLQMNSLRPEDTAVYYCHVDEVRQSSWTTSNLWGQGTQVTVSSGGGGSGGGGSGGGGSVQLQESGGGLVQPGGSLRLSCAASGSIFSINTMGWYRQAPGKQRELVAAVTRGGSTNYADSVKGRFTISRDNAKNTVYLQMNSLRPEDTAVYYCHVDEVRQSSWTTSNLWGQGTQVTVSSGGGGSGGGGSGGGGSVQLQESGGGLVQPGGSLRLSCAASGSIFIINTMGWYRRAPGKQRELVAAVTRGGSTNYADSVKGRFTISRDNAKNTVYLQMNSLRPEDTAVYYCHVDEVRQSSWTTSNLWGQGTQVTVSSGGGGSGGGGSGGGGSVQLQESGGGLVQPGGSLRLSCAASGSSFVINTMGWYRQAPGKQRELVAAVTRGGSTNYADSVKGRFTISRDNAKNTVYLQMNSLRPEDTAVYYCHVDEVRQSSWTTSNLWGQGTQVTVSS,0.181,4.8e-06,26500,1.15,1.4e-05,12200,0.319,1.5e-05,47000
A4-D7 (bispecific antibody) VQLQESGGGLVQTGGSLRLSCAASGRAFSLNTMGWYRQAPGKWRELVATVTRGGSTNYAGSVKGRFTISRDNAKNTVYLQMNNLRPEDTAVYYCHVDEVRESSWTTSNLWGQGTQVTVSSGGGGSGGGGSGGGGSVQLQESGGGLVQPGGSLRLSCAASGSIFTINSMGWYRQAPGKWRELVATVTRGGNTNYANSVKGRFTISRDNAKNTVYLQMNTLRPEDTAVYYCHLDEVRDSSWTTSNLWGQGTQVTVSSGGGGSGGGGSGGGGSVQLQESGGGLVQPGGSLRLSCAASGSIFSINSMGWYRQAPGKWRELVATVTRGGSTNYANSVKGRFTISRDNAKNTVYLQMNTLRPEDTAVYYCHLDEVRDSSWTTSNLWGQGTQVTVSSGGGGSGGGGSGGGGSVQLQESGGGLVQTGGSLRLSCAASGRAFSLNTMGWYRQAPGKWRELVATVTRGGSTNYAGSVKGRFTISRDNAKNTVYLQMNNLRPEDTAVYYCHVDEVRESSWTTSNLWGQGTQVTVSS,0.658,9.4e-06,14300,0.216,4.9e-06,22700,1.41,1.79e-05,12700
A4-D12 (protein) VQLQESGGGLVQPGGSLRLSCAASGSIFSINTMGWYRQAPGKQRELVAAVTRGGSTNYADSVKGRFTISRDNAKNTVYLQMNSLRPEDTAVYYCHVDEVRQSSWTTSNLWGQGTQVTVSSGGGGSGGGGSGGGGSVQLQESGGGLAQAGGSLRLSCAASGRGFSINTMGWYRQAPGKQRELVAAVTRGGTTNYADSVKGRFTISRDNAKNTVYLQMNSLRPEDTAVYYCHVDEVRQSSWTTSNLWGQGTQVTVSSGGGGSGGGGSGGGGSVQLQESGGGLVQPGGSLRLSCAASGRAFSINTMGWYRQAPGKQRELVATVTRDGSTNYAGSVKGRFTISRDNAKNTVYLQMNSLRPEDTAVYYCHVDEVRQSSWTTSNLWGQGTQVTVSSGGGGSGGGGSGGGGSVQLQESGGGLVQPGGSLRLSCAASGSIFIINTMGWYRRAPGKQRELVAAVTRGGSTNYADSVKGRFTISRDNAKNTVYLQMNSLRPEDTAVYYCHVDEVRQSSWTTSNLWGQGTQVTVSS,0.0555,3e-06,54000,0.44,1.7e-05,38600,0.262,6.5e-06,24800
A4-D13 (protein) VQLQESGGGLVQPGGSLRLSCAASGSIFIINTMGWYRRAPGKQRELVAAVTRGGSTNYADSVKGRFTISRDNAKNTVYLQMNSLRPEDTAVYYCHVDEVRQSSWTTSNLWGQGTQVTVSSGGGGSGGGGSGGGGSVQLQESGGGLVQPGGSLRLSCAASGSIFSINTMGWYRQAPGKQRELVAAVTRGGSTNYADSVKGRFTISRDNAKNTVYLQMNSLRPEDTAVYYCHVDEVRQSSWTTSNLWGQGTQVTVSSGGGGSGGGGSGGGGSVQLQESGGGLAQAGGSLRLSCAASGRGFSINTMGWYRQAPGKQRELVAAVTRGGTTNYADSVKGRFTISRDNAKNTVYLQMNSLRPEDTAVYYCHVDEVRQSSWTTSNLWGQGTQVTVSSGGGGSGGGGSGGGGSVQLQESGGGLVQPGGSLRLSCAASGRAFSINTMGWYRQAPGKQRELVATVTRDGSTNYAGSVKGRFTISRDNAKNTVYLQMNSLRPEDTAVYYCHVDEVRQSSWTTSNLWGQGTQVTVSS,0.0471,2.6e-06,55200,0.701,1.31e-05,18700,0.355,6.9e-06,19400
A4-D8 (bispecific antibody) VQLQESGGGLVQPGGSLRLSCAASGSRFSLNTMGWYRQAPGKQRELVATVTRGGSTNYADSVKGRFTISRDNAKNTVYLQMNSLRPEDTAVYYCHVDELRESGWTTSNLWGQGTQVTVSSGGGGSGGGGSGGGGSVQLQESGGGLVQPGGSLRLSCAASGSRFSLNTMGWYRQAPGKQRELVATVTRGGSTNYADFVKGRFTISRDNAKNTVYLQMNSLRPEDTAVYYCHVDELRESGWTTSNLWGQGTQVTVSSGGGGSGGGGSGGGGSVQLQESGGGLVHSGGSLRLSCAASGSMFSLNTMGWYRQAPGKQRELVATITRGGGTSYADSVKGRFTISRDNAKNTVYLQMNSLRPEDTAVYYCHVDELRQSSWTTSNLWGQGTQVTVSSGGGGSGGGGSGGGGSVQLQESGGGLVQPGGSLRLSCAASGSRFSLNTMGWYRQAPGKQRELVATVTRGGSTNYADFVKGRFTISRDNAKNTVYLQMNSLRPEDTAVYYCHVDELRESGWTTSNLWGQGTQVTVSS,0.313,1.32e-05,42200,1.49,1.96e-05,13200,0.228,1.1e-05,48200
